Assay results published in patent US20260274955A1 (JANUX THERAPEUTICS, published 2026).

Target: T1, Anti-CD28 Fab (SEQ ID NOs: 202, 203)
T1 construct: biotinylated and captured on neutravidin coated plates in the phage ELISA
Assay: phage ELISA, Fab on plate;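 also: crude clonal phage supernatants added to wells pretreated with blocking buffer with or without CD28 antigen, then bound phage read out via HRP-linked anti-M13 antibody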

T1 sequence (VH, as listed by the source, chain 1 of 2): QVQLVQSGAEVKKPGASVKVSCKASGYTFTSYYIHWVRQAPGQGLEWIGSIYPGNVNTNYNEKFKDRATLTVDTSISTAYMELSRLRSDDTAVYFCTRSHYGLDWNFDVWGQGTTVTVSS
T1 sequence (VL, as listed by the source, chain 2 of 2): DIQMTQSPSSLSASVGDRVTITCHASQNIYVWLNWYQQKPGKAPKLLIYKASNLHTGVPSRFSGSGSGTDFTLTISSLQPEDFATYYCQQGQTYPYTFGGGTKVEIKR

Compared with YCEGHLPEYMIKCL [Phage-658], YCEGHLPAYMWKCL [Phage-659] is lower in “Anti-CD28 Fab (SEQ ID NOs: 202, 203) signal” value: 1.32 for the first, 1.31 for the second.

YCDGHIPEYMTKCL [Phage-661] and YCEGHSAVYMSKCL [Phage-663] are the same in “Anti-CD28 Fab (SEQ ID NOs: 202, 203) signal” value: 1.31 for the first, 1.31 for the second.

YCEGHSLEYMMKCV [Phage-664] and YCDGHAPQYMAKCI [Phage-665] are the same in “Anti-CD28 Fab (SEQ ID NOs: 202, 203) signal” value: 1.3 for the first, 1.3 for the second.

YCQGHSVEHMAKCL [Phage-666] and YCAGHMPIYMTKCL [Phage-667] are the same in “Anti-CD28 Fab (SEQ ID NOs: 202, 203) signal” value: 1.3 for the first, 1.3 for the second.

Compared with YCDGHRAEYMLKCL [Phage-668], YCEGHLVQYMQKCL [Phage-669] is lower in “Anti-CD28 Fab (SEQ ID NOs: 202, 203) signal” value: 1.29 for the first, 1.28 for the second.

Compared with YCEGHDVQYMQKCL [Phage-749], YCMGHLPIYMEKCL [Phage-670] is higher in “Anti-CD28 Fab (SEQ ID NOs: 202, 203) signal” value: 1.06 for the first, 1.28 for the second.

YCEGHLPRYMLKCL [Phage-671] and YCDGHLEVYMDKCL [Phage-672] are the same in “Anti-CD28 Fab (SEQ ID NOs: 202, 203) signal” value: 1.28 for the first, 1.28 for the second.

Compared with YCDGHSPAYLQKCL [Phage-673], YCEGHSSQWMWKCL [Phage-674] is lower in “Anti-CD28 Fab (SEQ ID NOs: 202, 203) signal” value: 1.28 for the first, 1.27 for the second.

YCEGHFPLYMNKCL [Phage-675] and YCEGHSTEYMAKCL [Phage-676] are the same in “Anti-CD28 Fab (SEQ ID NOs: 202, 203) signal” value: 1.27 for the first, 1.27 for the second.

First: YCEGHSEEYMAKCL [Phage-682]
Second: YCEGHQPAYMEKCL [Phage-677]
The “Anti-CD28 Fab (SEQ ID NOs: 202, 203) signal” value of the first is lower: 1.26 for the first, 1.27 for the second.

YCDGHAEEYRMKCL [Phage-678] and YCDGHLPVYMTKCL [Phage-679] are the same in “Anti-CD28 Fab (SEQ ID NOs: 202, 203) signal” value: 1.27 for the first, 1.27 for the second.

YCDGHSSVYMLKCL [Phage-680] and YCEGHHRIYMQKCL [Phage-681] are the same in “Anti-CD28 Fab (SEQ ID NOs: 202, 203) signal” value: 1.26 for the first, 1.26 for the second.

YCEGHMSIYMQKCL [Phage-683] and YCEGHLQEHMAKCL [Phage-684] are the same in “Anti-CD28 Fab (SEQ ID NOs: 202, 203) signal” value: 1.25 for the first, 1.25 for the second.

First: YCAGLFEEYMSKCL [Phage-685]
Second: YCDGHSEQYMAKCL [Phage-687]
The “Anti-CD28 Fab (SEQ ID NOs: 202, 203) signal” value of the first is higher: 1.25 for the first, 1.24 for the second.

YCEGHTQEYMQKCL [Phage-688] and YCEGHLAEYMNKCL [Phage-690] are the same in “Anti-CD28 Fab (SEQ ID NOs: 202, 203) signal” value: 1.24 for the first, 1.24 for the second.

YCDGHVEEYMTKCL [Phage-691] and YCDGHLEQYMLKCL [Phage-692] are the same in “Anti-CD28 Fab (SEQ ID NOs: 202, 203) signal” value: 1.24 for the first, 1.24 for the second.

YCEGHIGIYMSKCL [Phage-693] and YCEGHSTEYIQKCL [Phage-694] are the same in “Anti-CD28 Fab (SEQ ID NOs: 202, 203) signal” value: 1.23 for the first, 1.23 for the second.

YCDGHSMMYMQKCL [Phage-695] and YCEGHSAEHMPKCL [Phage-696] are the same in “Anti-CD28 Fab (SEQ ID NOs: 202, 203) signal” value: 1.23 for the first, 1.23 for the second.

Compared with YCVGHYPEYMEKCL [Phage-697], YCDGHEARYMQKCL [Phage-698] is lower in “Anti-CD28 Fab (SEQ ID NOs: 202, 203) signal” value: 1.22 for the first, 1.21 for the second.

Target: T1, Anti-CD28 Fab (SEQ ID NOs: 202, 203)
Assay: phage ELISA, Fab on plate, CD28 antigen as competitor

Going from YCEGHLPEYMIKCL [Phage-658] to YCEGHLPAYMWKCL [Phage-659], the “Anti-CD28 Fab signal in the presence of CD28” value (shortened to “Anti-CD28 Fab signal”) rises from 0.06 to 0.08.

YCDGHIPEYMTKCL [Phage-661] and YCEGHSAVYMSKCL [Phage-663] are the same in “Anti-CD28 Fab signal” value: 0.06 for the first, 0.06 for the second.

Going from YCEGHSLEYMMKCV [Phage-664] to YCDGHAPQYMAKCI [Phage-665], the “Anti-CD28 Fab signal” value falls from 0.07 to 0.06.

Going from YCQGHSVEHMAKCL [Phage-666] to YCAGHMPIYMTKCL [Phage-667], the “Anti-CD28 Fab signal” value rises from 0.06 to 0.08.

Going from YCDGHRAEYMLKCL [Phage-668] to YCEGHLVQYMQKCL [Phage-669], the “Anti-CD28 Fab signal” value falls from 0.08 to 0.06.

Going from YCEGHDVQYMQKCL [Phage-749] to YCMGHLPIYMEKCL [Phage-670], the “Anti-CD28 Fab signal” value falls from 0.08 to 0.05.

Going from YCEGHLPRYMLKCL [Phage-671] to YCDGHLEVYMDKCL [Phage-672], the “Anti-CD28 Fab signal” value falls from 0.3 to 0.07.

First: YCDGHSPAYLQKCL [Phage-673]
Second: YCEGHSSQWMWKCL [Phage-674]
The “Anti-CD28 Fab signal” value of the first is lower: 0.06 for the first, 0.09 for the second.

First: YCEGHFPLYMNKCL [Phage-675]
Second: YCEGHSTEYMAKCL [Phage-676]
The “Anti-CD28 Fab signal” value of the first is higher: 0.08 for the first, 0.06 for the second.

Going from YCEGHSEEYMAKCL [Phage-682] to YCEGHQPAYMEKCL [Phage-677], the “Anti-CD28 Fab signal” value falls from 0.07 to 0.06.

First: YCDGHAEEYRMKCL [Phage-678]
Second: YCDGHLPVYMTKCL [Phage-679]
The “Anti-CD28 Fab signal” value of the first is higher: 0.08 for the first, 0.07 for the second.

First: YCDGHSSVYMLKCL [Phage-680]
Second: YCEGHHRIYMQKCL [Phage-681]
The “Anti-CD28 Fab signal” value of the first is lower: 0.06 for the first, 0.07 for the second.

Going from YCEGHMSIYMQKCL [Phage-683] to YCEGHLQEHMAKCL [Phage-684], the “Anti-CD28 Fab signal” value falls from 0.07 to 0.05.

YCAGLFEEYMSKCL [Phage-685] and YCDGHSEQYMAKCL [Phage-687] are the same in “Anti-CD28 Fab signal” value: 0.06 for the first, 0.06 for the second.

YCEGHTQEYMQKCL [Phage-688] and YCEGHLAEYMNKCL [Phage-690] are the same in “Anti-CD28 Fab signal” value: 0.07 for the first, 0.07 for the second.

Compared with YCDGHVEEYMTKCL [Phage-691], YCDGHLEQYMLKCL [Phage-692] is higher in “Anti-CD28 Fab signal” value: 0.07 for the first, 0.09 for the second.

Going from YCEGHIGIYMSKCL [Phage-693] to YCEGHSTEYIQKCL [Phage-694], the “Anti-CD28 Fab signal” value rises from 0.07 to 0.09.

Compared with YCDGHSMMYMQKCL [Phage-695], YCEGHSAEHMPKCL [Phage-696] is higher in “Anti-CD28 Fab signal” value: 0.06 for the first, 0.09 for the second.

YCVGHYPEYMEKCL [Phage-697] and YCDGHEARYMQKCL [Phage-698] are the same in “Anti-CD28 Fab signal” value: 0.07 for the first, 0.07 for the second.
